From PMC7822592, “The half-life of the bone-derived hormone osteocalcin is regulated through O-glycosylation in mice, but not in humans” (eLife, 2020)
No end group written: not given here.

What was measured:
[1] = system: INS-1 832/3 cells; assay: OCN stability in INS-1 832/3 cell culture media; type: in vitro ADME, rat; settings: 8 hours at 4°C without cells, ELISA
[2] = molecular target: T1, human plasmin (Homo sapiens, UniProt P00747); assay: Plasmin enzymatic assay on OCN in heat-inactivated plasma; type: in vitro ADME; settings: for % OCN from initial: heat-inactivated Bglap-/- plasma diluted two times in 100 mM Tris pH 7.5, 50 ng/ml, ELISA; for % OCN from initial / % OCN from initial in plasmin (0.3 U/ml): 2hrs, 37°C; for % OCN from initial in plasmin (0.3 U/ml): inset graph, heat-inactivated Bglap-/- plasma, 50 ng/ml
T1 construct: different concentration of human plasmin (Sigma); purchased Sigma P1867
T1 sequence (P00747 581-810 limits assumed): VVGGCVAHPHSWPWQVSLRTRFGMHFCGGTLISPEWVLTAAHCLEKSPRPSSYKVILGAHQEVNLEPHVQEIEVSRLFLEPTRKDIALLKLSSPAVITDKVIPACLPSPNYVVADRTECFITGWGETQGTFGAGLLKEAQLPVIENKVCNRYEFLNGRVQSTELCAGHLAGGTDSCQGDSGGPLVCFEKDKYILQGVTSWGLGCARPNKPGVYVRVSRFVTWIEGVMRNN
T1 sequence (P00747 97-580 partner limits assumed): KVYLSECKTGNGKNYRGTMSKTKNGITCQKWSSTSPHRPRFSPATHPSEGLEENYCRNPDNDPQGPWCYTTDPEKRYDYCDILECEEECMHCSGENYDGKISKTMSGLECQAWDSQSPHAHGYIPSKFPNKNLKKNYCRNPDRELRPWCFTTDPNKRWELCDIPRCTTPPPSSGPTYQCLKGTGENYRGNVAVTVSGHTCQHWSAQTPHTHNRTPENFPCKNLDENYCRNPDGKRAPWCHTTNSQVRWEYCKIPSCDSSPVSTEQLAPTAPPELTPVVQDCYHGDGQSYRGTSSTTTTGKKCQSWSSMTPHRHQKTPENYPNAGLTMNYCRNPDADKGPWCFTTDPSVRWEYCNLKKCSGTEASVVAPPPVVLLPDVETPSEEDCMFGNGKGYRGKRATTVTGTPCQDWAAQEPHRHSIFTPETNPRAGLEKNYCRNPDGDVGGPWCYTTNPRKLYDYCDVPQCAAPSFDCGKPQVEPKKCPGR
Description: The plasmin enzymatic assay was performed on plasma ex vivo in the presence of non-glycosylated OCN and glycosylated OCN as follows: plasma from Bglap-/- mice was heat-inactivated for 30 min at 56°C, then diluted two times in the enzyme assay buffer containing 100 mM Tris buffer pH 7.5. Non-glycosylated OCN or glycosylated OCN was incubated at 50 ng/ml in the diluted plasma for two hours in the presence of different concentration of human plasmin (Sigma) ranging from 0 to 0.3 U/ml. After two hours, OCN level was measured using total mouse OCN ELISA. Results are represented as percentage of initial concentration of non-glycosylated and glycosylated OCN respectively.

[3] = Ex vivo half-life of mouse OCN in plasma; type: in vitro ADME; settings: 100 ng/ml
Description: The mouse OCN ex vivo half-life assays were performed with fresh plasma (lithium heparin) collected from four independent Bglap-/- mice. Glycosylated OCN produced in HEK293 cells and non-glycosylated OCN, produced in bacteria as previously described ([Ferron et al., 2012]), were incubated at 100 ng/ml in plasma at 37°C and OCN level was measured at indicated time points using the total mouse OCN ELISA assay described previously ([Ferron et al., 2010b]). […] The detection antibody is a goat polyclonal antibody directed against the C-terminal region (amino acids 26 to 46) of mouse OCN (anti-CTERM OCN). This assay detects with the same sensitivity glycosylated and non-glycosylated mouse OCN at concentration of 50 ng/ml or less (Figure 3—figure supplement 2). Therefore, all samples were diluted to be in this range before being measured by the ELISA. Human OCN half-life assay was performed ex vivo using Bglap-/- mice plasma and human OCN at 60 ng/ml. Human OCN level was measured at different time point using the human ucOCN ELISA described above. At the experiment start point (T0), an aliquot of plasma was diluted in ELISA assay buffer and kept on ice for OCN measurements. In some experiments, plasma was heat-inactivated for 30 min at 56°C, or treated with EDTA (10 mM, Wisent), phenylmethylsulfonyl fluoride (PMSF, 10 mM, Sigma), pepstatin A (Pep A, 10 μM, Sigma) which inhibits aspartic proteases (pepsin, cathepsin D, renin, chymosin), RVKR (Dec-RVKR-CMK, 50 μM; Tocris) or talabostat (10 mM; Tocris). Results are calculated in percentage relative to the initial concentration of non-glycosylated and glycosylated OCN respectively.

Substance: ucOCN: Non-glycosylated uncarboxylated mouse osteocalcin produced in bacteria (YLGASVPSPDPLEPTREQCELNPACDELSDQYGLKTAYKRIYGITI; ends and bridges not checked; cysteine pairing not given here; UniProt P86546 50-95, looked up)
- OCN in stimulation media ([1]; replicate 1): 0.15 ng/mL
- OCN in stimulation media ([1]; replicate 2): 0.18 ng/mL
- OCN in stimulation media ([1]; replicate 3): 0.17 ng/mL
- % OCN from initial ([2]; plasmin 0 U/ml, replicate 1): 91.2%
- % OCN from initial ([2]; plasmin 0 U/ml, replicate 2): 108.8%
- % OCN from initial ([2]; plasmin 0.024 U/ml, replicate 1): 69.0%
- % OCN from initial ([2]; plasmin 0.024 U/ml, replicate 2): 80.5%
- % OCN from initial ([2]; plasmin 0.12 U/ml, replicate 1): 38.3%
- % OCN from initial ([2]; plasmin 0.12 U/ml, replicate 2): 44.1%
- % OCN from initial ([2]; plasmin 0.3 U/ml, replicate 1): 11.5%
- % OCN from initial ([2]; plasmin 0.3 U/ml, replicate 2): 15.5%
- % OCN from initial in plasmin (0.3 U/ml) ([2]; replicate 1): 11.5%
- % OCN from initial in plasmin (0.3 U/ml) ([2]; replicate 2): 15.5%
- % OCN from initial in plasmin (0.3 U/ml) ([2]; replicate 3): 12.3%
- % OCN from initial in plasmin (0.3 U/ml) ([2]; replicate 4): 11.4%
- % OCN from initial in plasmin (0.3 U/ml) ([2]; replicate 5): 9.9%
- reduction of concentration by plasmin ([2]; two hours): more than 90%
- stability in saline solution containing 3.5% BSA ([3]; 37°C, 2 hr, ELISA): stable
- % OCN from initial ([3]; Bglap-/- mouse plasma, 37°C, 0 min, ELISA, replicate 1): 100.0%
- % OCN from initial ([3]; Bglap-/- mouse plasma, 37°C, 0 min, ELISA, replicate 2): 100.0%
- % OCN from initial ([3]; Bglap-/- mouse plasma, 37°C, 0 min, ELISA, replicate 3): 100.0%
- % OCN from initial ([3]; Bglap-/- mouse plasma, 37°C, 15 min, ELISA, replicate 1): 87.1%
- % OCN from initial ([3]; Bglap-/- mouse plasma, 37°C, 15 min, ELISA, replicate 2): 96.1%
- % OCN from initial ([3]; Bglap-/- mouse plasma, 37°C, 15 min, ELISA, replicate 3): 88.6%
- % OCN from initial ([3]; Bglap-/- mouse plasma, 37°C, 30 min, ELISA, replicate 1): 81.2%
- % OCN from initial ([3]; Bglap-/- mouse plasma, 37°C, 30 min, ELISA, replicate 2): 85.3%
- % OCN from initial ([3]; Bglap-/- mouse plasma, 37°C, 30 min, ELISA, replicate 3): 89.8%
- % OCN from initial ([3]; Bglap-/- mouse plasma, 37°C, 60 min, ELISA, replicate 1): 73.3%
- % OCN from initial ([3]; Bglap-/- mouse plasma, 37°C, 60 min, ELISA, replicate 2): 71.4%
- % OCN from initial ([3]; Bglap-/- mouse plasma, 37°C, 60 min, ELISA, replicate 3): 69.0%
- % OCN from initial ([3]; Bglap-/- mouse plasma, 37°C, 90 min, ELISA, replicate 1): 67.3%
- % OCN from initial ([3]; Bglap-/- mouse plasma, 37°C, 90 min, ELISA, replicate 2): 65.7%
- % OCN from initial ([3]; Bglap-/- mouse plasma, 37°C, 90 min, ELISA, replicate 3): 66.9%
- % OCN from initial ([3]; Bglap-/- mouse plasma, 37°C, 120 min, ELISA, replicate 1): 60.1%
- % OCN from initial ([3]; Bglap-/- mouse plasma, 37°C, 120 min, ELISA, replicate 2): 56.6%
- % OCN from initial ([3]; Bglap-/- mouse plasma, 37°C, 120 min, ELISA, replicate 3): 51.9%
- % OCN from initial ([3]; Bglap-/- mouse plasma, 37°C, 180 min, ELISA, replicate 1): 51.9%
- % OCN from initial ([3]; Bglap-/- mouse plasma, 37°C, 180 min, ELISA, replicate 2): 46.9%
- % OCN from initial ([3]; Bglap-/- mouse plasma, 37°C, 180 min, ELISA, replicate 3): 43.8%
- % OCN from initial ([3]; Bglap-/- mouse plasma, 37°C, 300 min, ELISA, replicate 1): 36.9%
- % OCN from initial ([3]; Bglap-/- mouse plasma, 37°C, 300 min, ELISA, replicate 2): 36.3%
- % OCN from initial ([3]; Bglap-/- mouse plasma, 37°C, 300 min, ELISA, replicate 3): 30.7%
- % OCN from initial ([3]; Figure 3D, Bglap-/- mouse plasma, 2hrs, 4°C, Not HI, ELISA, replicate 1): 108.8%
- % OCN from initial ([3]; Figure 3D, Bglap-/- mouse plasma, 2hrs, 4°C, Not HI, ELISA, replicate 2): 99.4%
- % OCN from initial ([3]; Figure 3D, Bglap-/- mouse plasma, 2hrs, 4°C, Not HI, ELISA, replicate 3): 94.3%
- % OCN from initial ([3]; Figure 3D, Bglap-/- mouse plasma, 2hrs, 37°C, HI (heat-inactivated plasma), ELISA, replicate 1): 108.8%
- % OCN from initial ([3]; Figure 3D, Bglap-/- mouse plasma, 2hrs, 37°C, HI (heat-inactivated plasma), ELISA, replicate 2): 108.9%
- % OCN from initial ([3]; Figure 3D, Bglap-/- mouse plasma, 2hrs, 37°C, HI (heat-inactivated plasma), ELISA, replicate 3): 82.4%
- % OCN from initial ([3]; Figure 3D, Bglap-/- mouse plasma, 2hrs, 37°C, Not HI, ELISA, replicate 1): 34.6%
- % OCN from initial ([3]; Figure 3D, Bglap-/- mouse plasma, 2hrs, 37°C, Not HI, ELISA, replicate 2): 23.3%
- % OCN from initial ([3]; Figure 3D, Bglap-/- mouse plasma, 2hrs, 37°C, Not HI, ELISA, replicate 3): 37.9%
- % OCN from initial ([3]; Figure 3D, Bglap-/- mouse plasma, T0, ELISA, replicate 1): 101.3%
- % OCN from initial ([3]; Figure 3D, Bglap-/- mouse plasma, T0, ELISA, replicate 2): 100.0%
- % OCN from initial ([3]; Figure 3D, Bglap-/- mouse plasma, T0, ELISA, replicate 3): 98.7%
- % OCN from initial ([3]; Figure 3 supplement 3A, 3.5% BSA in saline solution, 2 hours at 37 °C, replicate 1): 108.8%
- % OCN from initial ([3]; Figure 3 supplement 3A, 3.5% BSA in saline solution, 2 hours at 37 °C, replicate 2): 110.0%
- % OCN from initial ([3]; Figure 3 supplement 3A, 3.5% BSA in saline solution, 2 hours at 37 °C, replicate 3): 106.2%
- % OCN from initial ([3]; Figure 3 supplement 3A, Bglap-/- mouse plasma, 4°C, T=2hours, replicate 1): 94.9%
- % OCN from initial ([3]; Figure 3 supplement 3A, Bglap-/- mouse plasma, 4°C, T=2hours, replicate 2): 99.7%
- % OCN from initial ([3]; Figure 3 supplement 3A, Bglap-/- mouse plasma, 4°C, T=2hours, replicate 3): 100.1%
- % OCN from initial ([3]; Figure 3 supplement 3A, Bglap-/- mouse plasma, 2 hours at 37 °C, Pepstatin A (10uM), replicate 1): 52.2%
- % OCN from initial ([3]; Figure 3 supplement 3A, Bglap-/- mouse plasma, 2 hours at 37 °C, Pepstatin A (10uM), replicate 2): 57.4%
- % OCN from initial ([3]; Figure 3 supplement 3A, Bglap-/- mouse plasma, 2 hours at 37 °C, Pepstatin A (10uM), replicate 3): 69.1%
- % OCN from initial ([3]; Figure 3 supplement 3A, Bglap-/- mouse plasma, 2 hours at 37 °C, RVKR (50uM), replicate 1): 56.2%
- % OCN from initial ([3]; Figure 3 supplement 3A, Bglap-/- mouse plasma, 2 hours at 37 °C, RVKR (50uM), replicate 2): 66.8%
- % OCN from initial ([3]; Figure 3 supplement 3A, Bglap-/- mouse plasma, 2 hours at 37 °C, RVKR (50uM), replicate 3): 78.0%
- % OCN from initial ([3]; Figure 3 supplement 3A, Bglap-/- mouse plasma, 2 hours at 37 °C, vehicle (V), replicate 1): 48.4%
- % OCN from initial ([3]; Figure 3 supplement 3A, Bglap-/- mouse plasma, 2 hours at 37 °C, vehicle (V), replicate 2): 65.6%
- % OCN from initial ([3]; Figure 3 supplement 3A, Bglap-/- mouse plasma, 2 hours at 37 °C, vehicle (V), replicate 3): 67.2%
- % OCN from initial ([3]; Figure 3 supplement 3A, Bglap-/- mouse plasma, T0, replicate 1): 107.3%
- % OCN from initial ([3]; Figure 3 supplement 3A, Bglap-/- mouse plasma, T0, replicate 2): 96.2%
- % OCN from initial ([3]; Figure 3 supplement 3A, Bglap-/- mouse plasma, T0, replicate 3): 96.6%
- % OCN from initial ([3]; Figure 3 supplement 3B, Bglap-/- mouse plasma, 4°C, T=2hours, replicate 1): 108.8%
- % OCN from initial ([3]; Figure 3 supplement 3B, Bglap-/- mouse plasma, 4°C, T=2hours, replicate 2): 99.4%
- % OCN from initial ([3]; Figure 3 supplement 3B, Bglap-/- mouse plasma, 4°C, T=2hours, replicate 3): 94.3%
- % OCN from initial ([3]; Figure 3 supplement 3B, Bglap-/- mouse plasma, 2 hours at 37 °C, 10 mM EDTA, replicate 1): 37.4%
- % OCN from initial ([3]; Figure 3 supplement 3B, Bglap-/- mouse plasma, 2 hours at 37 °C, 10 mM EDTA, replicate 2): 24.3%
- % OCN from initial ([3]; Figure 3 supplement 3B, Bglap-/- mouse plasma, 2 hours at 37 °C, 10 mM EDTA, replicate 3): 37.4%
- % OCN from initial ([3]; Figure 3 supplement 3B, Bglap-/- mouse plasma, 2 hours at 37 °C, vehicle (V), replicate 1): 34.6%
- % OCN from initial ([3]; Figure 3 supplement 3B, Bglap-/- mouse plasma, 2 hours at 37 °C, vehicle (V), replicate 2): 23.3%
- % OCN from initial ([3]; Figure 3 supplement 3B, Bglap-/- mouse plasma, 2 hours at 37 °C, vehicle (V), replicate 3): 37.9%
- % OCN from initial ([3]; Figure 3 supplement 3B, Bglap-/- mouse plasma, T0, replicate 1): 101.3%
- % OCN from initial ([3]; Figure 3 supplement 3B, Bglap-/- mouse plasma, T0, replicate 2): 100.0%
- % OCN from initial ([3]; Figure 3 supplement 3B, Bglap-/- mouse plasma, T0, replicate 3): 98.7%
- half-life in plasma ex vivo ([3]; fresh Bglap-/- mouse plasma (lithium heparin), 37°C, total mouse OCN ELISA, n = 4 plasma): ~ 120 min
